Laboratory results published in paper PMC9736959, “Enzyme-Linked Aptamer Kits for Rapid, Visual, and Sensitive Determination of Lactoferrin in Dairy Products”.

Target: lactoferrin (Lf) (bovine (from bovine milk), UniProt P24627 20-708)
Experiment: competition (indirect competitive enzyme-linked aptamer assay against immobilized cDNA S2); linear 25-500 nM Lf, LOD 14.01 nM (not a Kd); aptamer as SA-HRP conjugate; PBS pH 7.2, about 25 °C; Lf and recognition probe 5 min, then 30 min on cDNA-coated plate; PBS-T (0.05% Tween-20) washes
Conditions: protein: commercial; label: biotin; coupled to SA-HRP in the recognition probe; capture strand S2 is not an exact complement (fewer G opposite the C run)

Sequence of lactoferrin (Lf) (P24627 20-708): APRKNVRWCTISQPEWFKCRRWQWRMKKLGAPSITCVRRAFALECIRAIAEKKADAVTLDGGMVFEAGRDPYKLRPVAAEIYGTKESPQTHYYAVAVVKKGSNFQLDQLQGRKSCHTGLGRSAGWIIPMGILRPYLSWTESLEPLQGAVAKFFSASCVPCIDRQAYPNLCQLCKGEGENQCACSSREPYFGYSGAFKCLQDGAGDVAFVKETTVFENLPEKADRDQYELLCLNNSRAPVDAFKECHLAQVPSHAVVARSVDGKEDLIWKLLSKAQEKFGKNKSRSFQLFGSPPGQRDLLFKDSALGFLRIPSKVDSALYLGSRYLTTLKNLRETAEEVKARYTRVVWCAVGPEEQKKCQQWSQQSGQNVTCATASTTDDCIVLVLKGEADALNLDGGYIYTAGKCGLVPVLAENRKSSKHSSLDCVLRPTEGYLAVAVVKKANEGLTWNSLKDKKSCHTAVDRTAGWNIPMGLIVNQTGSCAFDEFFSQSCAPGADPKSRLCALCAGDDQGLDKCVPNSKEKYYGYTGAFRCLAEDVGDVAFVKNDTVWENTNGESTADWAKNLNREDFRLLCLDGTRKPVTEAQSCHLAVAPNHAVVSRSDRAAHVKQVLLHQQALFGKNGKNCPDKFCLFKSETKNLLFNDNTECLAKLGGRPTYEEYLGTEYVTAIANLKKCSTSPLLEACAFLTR

Question: Does TGGTGCTGCCCCCCTAGTCTCCGGCTGCTTCTTGG (ssDNA, 5' biotin (so in the source)) [Lf aptamer (biotin-Apt)] bind?
Answer: Result: binds
